Source: patent publication US20180186873A1 (CEPHALON, published 2018)
“And” between values parts separate entries of the source, which are not always exact repeats. Equal entries are not always repeated. Where two headings read alike, the source gives them in different places.

Key:
[1] = target: T1, recombinant human IL-5 (human, UniProt P05113 20-134); experiment: cell-based or functional assay
[2] = target: cynomolgus monkey IL-5 (cynomolgus monkey); experiment: cell-based or functional assay
[3] = target: T1, recombinant human IL-5; experiment: SPR
[4] = target: T1, recombinant human IL-5; experiment: SPR; remark: listed apart in the source
[5] = target: T2, recombinant human IL-3 (human, UniProt P08700 20-152); experiment: SPR
T2 sequence (looked up): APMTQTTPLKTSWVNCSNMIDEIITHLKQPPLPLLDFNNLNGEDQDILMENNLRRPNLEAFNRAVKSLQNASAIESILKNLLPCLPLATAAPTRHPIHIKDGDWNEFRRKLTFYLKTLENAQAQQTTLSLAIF

[6] = target: recombinant human IL-2 (human, UniProt P60568 21-153); experiment: SPR
Sequence of recombinant human IL-2 (P60568 21-153 limits assumed): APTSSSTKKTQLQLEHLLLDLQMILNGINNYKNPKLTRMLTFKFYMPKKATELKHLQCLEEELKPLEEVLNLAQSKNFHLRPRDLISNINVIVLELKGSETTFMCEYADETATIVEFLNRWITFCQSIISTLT

[7] = target: T3, recombinant human IL-4 (human, UniProt P05112 25-153); experiment: SPR
T3 sequence (looked up): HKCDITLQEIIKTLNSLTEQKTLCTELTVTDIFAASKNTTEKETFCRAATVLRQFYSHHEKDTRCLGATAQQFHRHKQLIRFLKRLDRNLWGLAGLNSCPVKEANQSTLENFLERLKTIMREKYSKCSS

[8] = target: T4, rat IL-5 (rat, UniProt Q08125 20-132); experiment: SPR
T4 sequence (looked up): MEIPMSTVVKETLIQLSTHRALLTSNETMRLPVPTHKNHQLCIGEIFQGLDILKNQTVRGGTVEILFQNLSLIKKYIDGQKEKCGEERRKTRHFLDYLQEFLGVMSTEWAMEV

[9] = target: T5, mouse IL-5 (mouse, UniProt P04401 21-133); experiment: SPR
T5 sequence (looked up): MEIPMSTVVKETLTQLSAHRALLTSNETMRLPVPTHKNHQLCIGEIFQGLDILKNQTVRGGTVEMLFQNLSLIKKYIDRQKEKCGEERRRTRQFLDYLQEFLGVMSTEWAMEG

[10] = target: recombinant human growth hormone (human, UniProt P01241 27-217); experiment: SPR
Sequence of recombinant human growth hormone (P01241 27-217 limits assumed): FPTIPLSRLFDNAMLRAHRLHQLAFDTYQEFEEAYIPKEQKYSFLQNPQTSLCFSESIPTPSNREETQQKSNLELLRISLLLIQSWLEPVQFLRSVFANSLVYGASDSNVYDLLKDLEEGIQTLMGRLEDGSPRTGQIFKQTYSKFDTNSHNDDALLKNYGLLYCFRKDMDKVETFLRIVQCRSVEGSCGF

[11] = target: T6, recombinant human macrophage colony stimulating factor (human, UniProt P09603 33-190, limits assumed); experiment: SPR
T6 sequence (looked up): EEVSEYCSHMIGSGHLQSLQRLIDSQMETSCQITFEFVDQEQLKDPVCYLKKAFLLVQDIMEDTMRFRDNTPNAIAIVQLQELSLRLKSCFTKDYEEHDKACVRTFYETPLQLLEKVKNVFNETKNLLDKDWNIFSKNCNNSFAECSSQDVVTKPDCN

[12] = target: recombinant human granulocyte macrophage colony stimulating factor (human, UniProt P04141 18-144); experiment: SPR
Sequence of recombinant human granulocyte macrophage colony stimulating factor (P04141 18-144 limits assumed): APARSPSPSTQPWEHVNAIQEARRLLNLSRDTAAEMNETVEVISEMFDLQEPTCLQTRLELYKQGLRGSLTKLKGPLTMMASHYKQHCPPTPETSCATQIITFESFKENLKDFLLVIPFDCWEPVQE

[13] = target: T7, guinea pig IL-5 (guinea pig, UniProt O08987 20-135); experiment: SPR
T7 sequence: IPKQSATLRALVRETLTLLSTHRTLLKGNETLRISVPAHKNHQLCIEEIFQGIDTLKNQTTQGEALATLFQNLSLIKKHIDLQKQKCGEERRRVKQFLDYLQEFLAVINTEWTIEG

[14] = target: T8, recombinant human IL-5 (human, UniProt P05113 20-134); experiment: SPR, Protein A capture
[15] = target: T8, recombinant human IL-5; experiment: SPR, Protein A capture; remark: listed apart in the source
[16] = target: T8, recombinant human IL-5; experiment: SPR, Protein A capture; remark: listed apart in the source
[17] = target: T8, recombinant human IL-5; experiment: SPR, Protein A capture; remark: listed apart in the source
[18] = target: T8, recombinant human IL-5; experiment: SPR, Protein A capture; remark: listed apart in the source
[19] = target: T8, recombinant human IL-5; experiment: SPR, Protein A capture; remark: listed apart in the source
[20] = target: T8, recombinant human IL-5; experiment: SPR, Protein A capture; remark: listed apart in the source
[21] = target: T8, recombinant human IL-5; experiment: SPR, Protein A capture; remark: listed apart in the source
[22] = target: T8, recombinant human IL-5; experiment: SPR, Protein A capture; remark: listed apart in the source
[23] = target: T8, recombinant human IL-5; experiment: SPR, Protein A capture; remark: listed apart in the source
[24] = target: T9, recombinant human IL-5 (human, UniProt P05113 20-134); experiment: cell-based or functional assay; remark: listed apart in the source
[25] = target: T9, recombinant human IL-5
[26] = target: T10, recombinant human IL-5 (human, UniProt P05113 20-134); experiment: SPR; remark: listed apart in the source
[27] = target: T10, recombinant human IL-5; experiment: SPR; remark: listed apart in the source

B1: 3A5.046 (antibody, human IgG4 S228P, lambda)
heavy: QVQLQESGPGLVKPSQTLSLTCTVSGGSISNGGYYWSWIRQHPGKGLEWIGYIYYSGSTYYNPSLKSRVTISVDTSKNQFSLKLSSVTAADTAVYYCASLGNWFDYWGQGTLVTVSSASTKGPSVFPLAPCSRSTSESTAALGCLVKDYFPEPVTVSWNSGALTSGVHTFPAVLQSSGLYSLSSVVTVPSSSLGTKTYTCNVDHKPSNTKVDKRVESKYGPPCPPCPAPEFLGGPSVFLFPPKPKDTLYITREPEVTCVVVDVSQEDPEVQFNWYVDGVEVHNAKTKPREEQFNSTYRVVSVLTVLHQDWLNGKEYKCKVSNKGLPSSIEKTISKAKGQPREPQVYTLPPSQEEMTKNQVSLTCLVKGFYPSDIAVEWESNGQPENNYKTTPPVLDSDGSFFLYSRLTVDKSRWQEGNVFSCSVMHEALHNHYTQKSLSLSLG
light: SYVLTQPPSVSVAPGQTARITCGGNNIGSKNVYWYQQKPGQAPVLVVHDDSDRPSGIPERFSGSNSGNTATLTISRVEVGDEADYSCQVWDSSSDHVVFGGGTKLTVLGQPKAAPSVTLFPPSSEELQANKATLVCLISDFYPGAVTVAWKADSSPVKAGVETTTPSKQSNNKYAASSYLSLTPEQWKSHRSYSCQVTHEGSTVEKTVAPTECS
IC50, inhibition of IL-5 driven proliferation of TF-1.6G4 cells (Mean, pM) [1]: 13.8 pM
IC50, inhibition of IL-5 driven proliferation of TF-1.6G4 cells (Mean, pM) [2]: 43.8 pM
Kd [3]: 0.0194 nM
koff [3]: 1.58e-05 s⁻¹
kon [3]: 816000 M⁻¹ s⁻¹
Kd [4]: 0.0217 nM
koff [4]: 1.84e-05 s⁻¹
kon [4]: 849000 M⁻¹ s⁻¹

B2: antibody 3A5.046 (antibody, human IgG4 S228P, lambda)
heavy: QVQLQESGPGLVKPSQTLSLTCTVSGGSISNGGYYWSWIRQHPGKGLEWIGYIYYSGSTYYNPSLKSRVTISVDTSKNQFSLKLSSVTAADTAVYYCASLGNWFDYWGQGTLVTVSSASTKGPSVFPLAPCSRSTSESTAALGCLVKDYFPEPVTVSWNSGALTSGVHTFPAVLQSSGLYSLSSVVTVPSSSLGTKTYTCNVDHKPSNTKVDKRVESKYGPPCPPCPAPEFLGGPSVFLFPPKPKDTLYITREPEVTCVVVDVSQEDPEVQFNWYVDGVEVHNAKTKPREEQFNSTYRVVSVLTVLHQDWLNGKEYKCKVSNKGLPSSIEKTISKAKGQPREPQVYTLPPSQEEMTKNQVSLTCLVKGFYPSDIAVEWESNGQPENNYKTTPPVLDSDGSFFLYSRLTVDKSRWQEGNVFSCSVMHEALHNHYTQKSLSLSLG
light: SYVLTQPPSVSVAPGQTARITCGGNNIGSKNVYWYQQKPGQAPVLVVHDDSDRPSGIPERFSGSNSGNTATLTISRVEVGDEADYSCQVWDSSSDHVVFGGGTKLTVLGQPKAAPSVTLFPPSSEELQANKATLVCLISDFYPGAVTVAWKADSSPVKAGVETTTPSKQSNNKYAASSYLSLTPEQWKSHRSYSCQVTHEGSTVEKTVAPTECS
binding result [5]: no binding (tested: 1 µg/ml)
binding result [6]: no binding (tested: 1 µg/ml)
binding result [7]: no binding (tested: 1 µg/ml)
binding result [8]: no binding (tested: 10 µg/ml)
binding result [9]: no binding (tested: 10 µg/ml)
binding result [10]: no binding (tested: 1 µg/ml)
binding result [11]: no binding (tested: 1 µg/ml)
binding result [12]: no binding (tested: 1 µg/ml)
binding result [13]: no binding (tested: 10 µg/ml)

B3: 3A5.040 (antibody, human IgG4 S228P, lambda)
heavy: not shown
light: SYVLTQPPSVSVAPGQTARITCGGNNIGSKNVYWYQQKPGQAPVLVVHDDSDRPSGIPERFSGSNSGNTATLTISRVEVGDEADYSCQVWDSSSDHVVFGGGTKLTVLGQPKAAPSVTLFPPSSEELQANKATLVCLISDFYPGAVTVAWKADSSPVKAGVETTTPSKQSNNKYAASSYLSLTPEQWKSHRSYSCQVTHEGSTVEKTVAPTECS
Kd [14]: 0.163 nM
koff [14]: 0.000229 s⁻¹
kon [14]: 1.41e+06 M⁻¹ s⁻¹
Kd [15]: 0.167 nM and 0.174 nM
koff [15]: 0.000237 s⁻¹ and 0.000252 s⁻¹
kon [15]: 1.42e+06 M⁻¹ s⁻¹ and 1.45e+06 M⁻¹ s⁻¹
Kd [16]: 0.175 nM
koff [16]: 0.000245 s⁻¹
kon [16]: 1.4e+06 M⁻¹ s⁻¹
Kd [17]: 0.161 nM and 0.168 nM
koff [17]: 0.000232 s⁻¹ and 0.000239 s⁻¹
kon [17]: 1.44e+06 M⁻¹ s⁻¹ and 1.43e+06 M⁻¹ s⁻¹
Kd [18]: 0.193 nM and 0.16 nM
koff [18]: 0.000261 s⁻¹ and 0.000232 s⁻¹
kon [18]: 1.36e+06 M⁻¹ s⁻¹ and 1.45e+06 M⁻¹ s⁻¹
Kd [19]: 0.171 nM
koff [19]: 0.000252 s⁻¹
kon [19]: 1.47e+06 M⁻¹ s⁻¹
Kd [20]: 0.147 nM
koff [20]: 0.000213 s⁻¹
kon [20]: 1.45e+06 M⁻¹ s⁻¹
Kd [21]: 0.148 nM and 0.193 nM
koff [21]: 0.000214 s⁻¹ and 0.000285 s⁻¹
kon [21]: 1.44e+06 M⁻¹ s⁻¹ and 1.48e+06 M⁻¹ s⁻¹
Kd [22]: 0.18 nM
koff [22]: 0.000246 s⁻¹
kon [22]: 1.36e+06 M⁻¹ s⁻¹
% 3A5.040 kd [23]: 94%

B4: antibody 3A5 (antibody, human IgG1, lambda, V domains shown)
VH: QVQLQESGPGLVKPSQTLSLTCTVSGGSISNGGYYWSWIRQHPGKGLEWIGYIYYSGSTYYNPSLKSRVSISVDTSKNQFSLKLNSVTAADTAVYYCASLGNWFDYWGQGTLVTVSS
VL: SSILTQPPSVSVAPGQTARITCGGNNIGSKNVYWYQQKPGQAPVLVVHDDSDRPSGIPERFSGSNSGNTATLTISRVEVGDEADYSCQVWYSSSDHVVFGGGTKLTVLG
IC50 (pM) in TF1.6G4 [24]: 35.1 pM
Kd [25]: 0.036 nM

B5: 3A5.294 (antibody, human IgG4 S228P, lambda, V domains shown)
VH: QVQLQESGPGLVKPSQTLSLTCTVSGGSISNGGYYWSWIRQHPGKGLEWIGYIYYSGSTYYNPSLKSRVTISVDTSKNQFSLKLSSVTAADTAVYYCASLGNWFDYWGQGTLVTVSS
VL: SYVLTQPPSVSVAPGQTARITCGGNNIGSKNVYWYQQKPGQAPVLVVHDDSDRPSGIPERFSGSNSGNTATLTISRVEVGDEADYSCQVWDSSSDHVAFGGGTKLTVLG
% 3A5.040 kd [26]: 155%
Kd [27]: 0.123 nM
